Data on seven molecules can be found in US20230416365A1 (Hoffmann-La Roche, published 2023).

What is called EC50 (read off the curve) is the concentration needed to bring the measured effect to its halfway point. Usually EC50 stands for the midpoint of the concentration-response curve. One may read the Kd as the free concentration of one partner at which half of the binding sites on the other are occupied at equilibrium, for simple one-to-one binding. Higher therefore signals weaker binding.

The target of test [1] is T1, human CD28 on CHO cells (parental cell line CHO-k1 ATCC #CCL-61, modified to stably overexpress human CD28) (human, UniProt P10747 19-220).
T1 construct: also called hu CD28; CHO-hCD28
In words: flow cytometry on CHO-k1 cells expressing human CD28, PE anti-human secondary antibody, MFI. A general note: In flow cytometry, cells or beads pass a laser one at a time.

The target in test [2] is T1, human CD28 on CHO cells (parental cell …). The experiment in a line: flow cytometry on CHO-hCD28 cells.
Test [3] deals with T2, human GPRC5D on CHO-hGPRC5D cells (human, UniProt Q9NZD1 1-345).
T2 construct: also called CHO huGPRC5D L2
In words: flow cytometry on CHO huGPRC5D cells, AF488 anti-human IgG Fc secondary.

Test [4] has as its target human FAP on 3T3-huFAP cells (clone 19) (human, UniProt Q12884 1-760). In words: flow cytometry on 3T3-huFAP cells, median fluorescence intensity (axis MFI APC).
The target of test [5] is T2, human GPRC5D on CHO-hGPRC5D cells. In words: flow cytometry on CHO huGPRC5D cells, PE anti-human IgG Fc secondary.
The target of test [6] is T1, human CD28 on CHO cells (parental cell …). In words: flow cytometry on CHO-k1 cells expressing human CD28, PE anti-human secondary antibody, MFI. This is another data set of the same source.
In test [7] the target is T3, human HER3 on T-47D cells (human, UniProt P21860 20-1342).
T3 construct: also called ErbB3
The experiment in a line: flow cytometry on T-47D cells, PE anti-human secondary antibody, MFI.

For test [8], the target named is T4, human CEA (CEACAM5), form in the assay not stated (human, UniProt P06731 35-685, limits assumed).
T4 sequence: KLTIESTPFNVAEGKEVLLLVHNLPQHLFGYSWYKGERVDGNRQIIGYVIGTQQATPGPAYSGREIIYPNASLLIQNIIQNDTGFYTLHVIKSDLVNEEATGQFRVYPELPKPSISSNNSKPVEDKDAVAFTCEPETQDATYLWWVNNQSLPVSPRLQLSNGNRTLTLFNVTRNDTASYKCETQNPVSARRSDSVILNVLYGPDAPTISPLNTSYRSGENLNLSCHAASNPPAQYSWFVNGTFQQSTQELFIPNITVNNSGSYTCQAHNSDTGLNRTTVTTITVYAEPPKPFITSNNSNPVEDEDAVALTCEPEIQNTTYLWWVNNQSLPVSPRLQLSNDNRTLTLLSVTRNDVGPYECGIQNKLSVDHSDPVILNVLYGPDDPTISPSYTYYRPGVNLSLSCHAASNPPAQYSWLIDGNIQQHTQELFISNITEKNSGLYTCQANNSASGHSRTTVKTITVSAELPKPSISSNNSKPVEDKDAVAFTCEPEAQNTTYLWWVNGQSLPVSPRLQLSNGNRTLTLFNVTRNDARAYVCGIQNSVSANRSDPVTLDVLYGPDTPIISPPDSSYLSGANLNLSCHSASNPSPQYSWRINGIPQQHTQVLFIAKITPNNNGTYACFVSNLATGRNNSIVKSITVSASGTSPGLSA
In words: SPR. (SPR reads the build-up and loss of mass on a sensor chip optically.)

B1: EpCAM (MT201)-CD28 (SA_Variant 15) 1+1 format (Molecule 14A) (bispecific antibody, human IgG1, kappa, L234A L235A)
heavy 1: not shown
light 1: QVQLVQSGAEVKKPGASVKVSCKASGYTFTSYYIHWVRQAPGQGLEWIGSIYPGNVQTNYNEKFKDRATLTVDTSISTAYMELSRLRSDDTAVYFCTRSHYGLDWNFDVWGQGTTVTVSSASVAAPSVFIFPPSDEQLKSGTASVVCLLNNFYPREAKVQWKVDNALQSGNSQESVTEQDSKDSTYSLSSTLTLSKADYEKHKVYACEVTHQGLSSPVTKSFNRGEC
heavy 2: not shown
light 2: ELQMTQSPSSLSASVGDRVTITCRTSQSISSYLNWYQQKPGQPPKLLIYWASTRESGVPDRFSGSGSGTDFTLTISSLQPEDSATYYCQQSYDIPYTFGQGTKLEIKRTVAAPSVFIFPPSDRKLKSGTASVVCLLNNFYPREAKVQWKVDNALQSGNSQESVTEQDSKDSTYSLSSTLTLSKADYEKHKVYACEVTHQGLSSPVTKSFNRGEC
notes: huIgG1 PG-LALA CrossFab; also called P1AE9051; EpCAM-CD28
In the case of B1, the concentration for a half-maximal effect (EC50 (read off the curve)) in test [1] is approximately 8 nM.

B2: GPRC5D (5E11)-CD28 (SA_Variant 15) 1+1 format (Molecule 16A) (bispecific antibody, human IgG1, kappa, L234A L235A)
heavy 1: not shown
light 1: QVQLVQSGAEVKKPGASVKVSCKASGYTFTSYYIHWVRQAPGQGLEWIGSIYPGNVQTNYNEKFKDRATLTVDTSISTAYMELSRLRSDDTAVYFCTRSHYGLDWNFDVWGQGTTVTVSSASVAAPSVFIFPPSDEQLKSGTASVVCLLNNFYPREAKVQWKVDNALQSGNSQESVTEQDSKDSTYSLSSTLTLSKADYEKHKVYACEVTHQGLSSPVTKSFNRGEC
heavy 2: EVQLLESGGGLVQPGGSLRLSCAASGFTFSKYAMAWVRQAPGKGLEWVASISTGGVNTYYADSVKGRFTISRDNSKNTLYLQMNSLRAEDTAVYYCATHTGDYFDYWGQGTMVTVSSASTKGPSVFPLAPSSKSTSGGTAALGCLVEDYFPEPVTVSWNSGALTSGVHTFPAVLQSSGLYSLSSVVTVPSSSLGTQTYICNVNHKPSNTKVDEKVEPKSCDKTHTCPPCPAPEAAGGPSVFLFPPKPKDTLMISRTPEVTCVVVDVSHEDPEVKFNWYVDGVEVHNAKTKPREEQYNSTYRVVSVLTVLHQDWLNGKEYKCKVSNKALGAPIEKTISKAKGQPREPQVCTLPPSRDELTKNQVSLSCAVKGFYPSDIAVEWESNGQPENNYKTTPPVLDSDGSFFLVSKLTVDKSRWQQGNVFSCSVMHEALHNHYTQKSLSLSP
light 2: EIVLTQSPGTLSLSPGERATLSCRASQSVSISGINLMNWYQQKPGQQPKLLIYHASILASGIPDRFSGSGSGTDFTLTISRLEPEDFAVYYCQQTRESPLTFGQGTRLEIKRTVAAPSVFIFPPSDRKLKSGTASVVCLLNNFYPREAKVQWKVDNALQSGNSQESVTEQDSKDSTYSLSSTLTLSKADYEKHKVYACEVTHQGLSSPVTKSFNRGEC
notes: huIgG1 PG-LALA CrossFab; also called P1AF1272
As for B2, the EC50 in test [2] lay within 4.7 to 5.2 nM. Moreover, in test [3], the binding result is on record as “binds”.

B3: FAP-CD28SA 2+1 (P1AD5231) (bispecific antibody, human IgG1, kappa, L234A L235A)
heavy chain CD28(SA) VLCH1 - FAP(4B9) VHCH1 EE - Fc knob PGLALA: not shown
heavy chain FAP(4B9) VHCH1 EE - Fc hole PGLALA: EVQLLESGGGLVQPGGSLRLSCAASGFTFSSYAMSWVRQAPGKGLEWVSAIIGSGASTYYADSVKGRFTISRDNSKNTLYLQMNSLRAEDTAVYYCAKGWFGGFNYWGQGTLVTVSSASTKGPSVFPLAPSSKSTSGGTAALGCLVEDYFPEPVTVSWNSGALTSGVHTFPAVLQSSGLYSLSSVVTVPSSSLGTQTYICNVNHKPSNTKVDEKVEPKSCDKTHTCPPCPAPEAAGGPSVFLFPPKPKDTLMISRTPEVTCVVVDVSHEDPEVKFNWYVDGVEVHNAKTKPREEQYNSTYRVVSVLTVLHQDWLNGKEYKCKVSNKALGAPIEKTISKAKGQPREPQVCTLPPSRDELTKNQVSLSCAVKGFYPSDIAVEWESNGQPENNYKTTPPVLDSDGSFFLVSKLTVDKSRWQQGNVFSCSVMHEALHNHYTQKSLSLSP
CD28(SA) VHCL: QVQLVQSGAEVKKPGASVKVSCKASGYTFTSYYIHWVRQAPGQGLEWIGCIYPGNVNTNYNEKFKDRATLTVDTSISTAYMELSRLRSDDTAVYFCTRSHYGLDWNFDVWGQGTTVTVSSASVAAPSVFIFPPSDEQLKSGTASVVCLLNNFYPREAKVQWKVDNALQSGNSQESVTEQDSKDSTYSLSSTLTLSKADYEKHKVYACEVTHQGLSSPVTKSFNRGEC
FAP(4B9) VLCL RK: EIVLTQSPGTLSLSPGERATLSCRASQSVTSSYLAWYQQKPGQAPRLLINVGSRRATGIPDRFSGSGSGTDFTLTISRLEPEDFAVYYCQQGIMLPPTFGQGTKVEIKRTVAAPSVFIFPPSDRKLKSGTASVVCLLNNFYPREAKVQWKVDNALQSGNSQESVTEQDSKDSTYSLSSTLTLSKADYEKHKVYACEVTHQGLSSPVTKSFNRGEC
notes: monovalent for CD28, bivalent for FAP; also called Molecule G; FAP (4B9)-CD28 (SA) 2+1
As for B3, in test [4], the “EC50 (read off the curve)” value is approximately 0.3 nM.

B4: GPRC5D (5E11)-CD28 (SA_Variant 8) 1+1 format (Molecule 16B) (bispecific antibody, human IgG1, kappa, L234A L235A)
heavy 1: not shown
light 1: QVQLVQSGAEVKKPGASVKVSCKASGYTFTSYYIHWVRQAPGQGLEWIGSIYPGNVQTNYNEKFKDRATLTVDTSISTAYMELSRLRSDDTAVYFCTRSHYGLDFNFDVWGQGTTVTVSSASVAAPSVFIFPPSDEQLKSGTASVVCLLNNFYPREAKVQWKVDNALQSGNSQESVTEQDSKDSTYSLSSTLTLSKADYEKHKVYACEVTHQGLSSPVTKSFNRGEC
heavy 2: EVQLLESGGGLVQPGGSLRLSCAASGFTFSKYAMAWVRQAPGKGLEWVASISTGGVNTYYADSVKGRFTISRDNSKNTLYLQMNSLRAEDTAVYYCATHTGDYFDYWGQGTMVTVSSASTKGPSVFPLAPSSKSTSGGTAALGCLVEDYFPEPVTVSWNSGALTSGVHTFPAVLQSSGLYSLSSVVTVPSSSLGTQTYICNVNHKPSNTKVDEKVEPKSCDKTHTCPPCPAPEAAGGPSVFLFPPKPKDTLMISRTPEVTCVVVDVSHEDPEVKFNWYVDGVEVHNAKTKPREEQYNSTYRVVSVLTVLHQDWLNGKEYKCKVSNKALGAPIEKTISKAKGQPREPQVCTLPPSRDELTKNQVSLSCAVKGFYPSDIAVEWESNGQPENNYKTTPPVLDSDGSFFLVSKLTVDKSRWQQGNVFSCSVMHEALHNHYTQKSLSLSP
light 2: EIVLTQSPGTLSLSPGERATLSCRASQSVSISGINLMNWYQQKPGQQPKLLIYHASILASGIPDRFSGSGSGTDFTLTISRLEPEDFAVYYCQQTRESPLTFGQGTRLEIKRTVAAPSVFIFPPSDRKLKSGTASVVCLLNNFYPREAKVQWKVDNALQSGNSQESVTEQDSKDSTYSLSSTLTLSKADYEKHKVYACEVTHQGLSSPVTKSFNRGEC
notes: huIgG1 PG-LALA CrossFab; also called P1AF2954
As to B4, the EC50 in test [2] is 74.2 nM. The binding result in test [5] is reported as “binds”.

B5: HER3(lumretuzumab)-CD28 (SA_Variant 15) 1+1 format (Molecule 14B) (bispecific antibody, human IgG1, kappa, L234A L235A)
heavy 1: not shown
light 1: not shown
heavy 2: DIVMTQSPDSLAVSLGERATINCKSSQSVLNSGNQKNYLTWYQQKPGQPPKLLIYWASTRESGVPDRFSGSGSGTDFTLTISSLQAEDVAVYYCQSDYSYPYTFGQGTKLEIKSSASTKGPSVFPLAPSSKSTSGGTAALGCLVKDYFPEPVTVSWNSGALTSGVHTFPAVLQSSGLYSLSSVVTVPSSSLGTQTYICNVNHKPSNTKVDKKVEPKSCDKTHTCPPCPAPEAAGGPSVFLFPPKPKDTLMISRTPEVTCVVVDVSHEDPEVKFNWYVDGVEVHNAKTKPREEQYNSTYRVVSVLTVLHQDWLNGKEYKCKVSNKALGAPIEKTISKAKGQPREPQVCTLPPSRDELTKNQVSLSCAVKGFYPSDIAVEWESNGQPENNYKTTPPVLDSDGSFFLVSKLTVDKSRWQQGNVFSCSVMHEALHNHYTQKSLSLSP
light 2: QVQLVQSGAEVKKPGASVKVSCKASGYTFRSSYISWVRQAPGQGLEWMGWIYAGTGSPSYNQKLQGRVTMTTDTSTSTAYMELRSLRSDDTAVYYCARHRDYYSNSLTYWGQGTLVTVSSASVAAPSVFIFPPSDEQLKSGTASVVCLLNNFYPREAKVQWKVDNALQSGNSQESVTEQDSKDSTYSLSSTLTLSKADYEKHKVYACEVTHQGLSSPVTKSFNRGEC
notes: huIgG1 PG-LALA CrossFab; also called P1AF0151; HER3-CD28
In the case of B5, the binding result in test [6] is “binds”. In test [7], the concentration giving a half-maximal response (EC50 (read off the curve)) was approximately 1 nM.

B6: humanized CEA antibody A5H1EL1D (format in the assay not stated) (antibody, V domains shown)
VH: EVQLLESGGGLVQPGGSLRLSCAASGFTFTDYYMNWVRQAPGKGLEWLGFIGNKANAYTTEYSASVKGRFTISRDKSKNTLYLQMNSLRAEDTATYYCTRDRGLRFYFDYWGQGTTVTVSS
VL: EIVLTQSPATLSLSPGERATLSCRASSSVTYIHWYQQKPGQAPRSWIYATSNLASGIPARFSGSGSGTDFTLTISSLEPEDFAVYYCQHWSSKPPTFGQGTKLEIK
notes: heavy chain with VH variant 3-23A5-1E and Ckappa light chain with VL variant A5-L1D; also called huA5B7
For B6, the equilibrium dissociation constant (Kd) in test [8] is approximately 2.5 nM.

B7: murine CEA antibody A5B7 (parental) (antibody, V domains shown)
VH: EVKLVESGGGLVQPGGSLRLSCATSGFTFTDYYMNWVRQPPGKALEWLGFIGNKANGYTTEYSASVKGRFTISRDKSQSILYLQMNTLRAEDSATYYCTRDRGLRFYFDYWGQGTTLTVSS
VL: QTVLSQSPAILSASPGEKVTMTCRASSSVTYIHWYQQKPGSSPKSWIYATSNLASGVPARFSGSGSGTSYSLTISRVEAEDAATYYCQHWSSKPPTFGGGTKLEIK
notes: also called parental murine A5B7 antibody; parental chimeric antibody
For B7, the equilibrium dissociation constant (Kd) in test [8] was approximately 0.8 nM.
